Results as given in PMC11014985, “TCTP regulates genotoxic stress and tumorigenicity via intercellular vesicular signaling” (EMBO Reports, 2024).

How the values were obtained:
[1] = molecular target: TCTP (translationally controlled tumor protein) (human) (UniProt P13693); test: SPR; Biacore 2000; TCTP amine-coupled on CM5 chip (697 RU); DDX3 injected in two-fold dilutions 0.195 to 100 nM, 30 ul/min; HBS-EP (10 mM HEPES pH 7.2, 150 mM NaCl, 3 mM EDTA, 0.005% Tween 20); 25 C; global Langmuir binding with drifting baseline
Sequence of TCTP (translationally controlled tumor protein) (human) (P13693 whole entry): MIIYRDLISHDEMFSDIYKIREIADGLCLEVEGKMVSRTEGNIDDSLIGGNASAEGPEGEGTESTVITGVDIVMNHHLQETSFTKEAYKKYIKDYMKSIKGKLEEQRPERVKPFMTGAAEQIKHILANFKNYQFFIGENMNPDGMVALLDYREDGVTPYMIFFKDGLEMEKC

[2] = molecular target: TCTP (translationally controlled tumor protein) (human) (UniProt P13693); test: SPR; positive control for the SPR experiments; who was immobilised and the conditions are not told for TSAP6 (Appendix Fig. S2); also run with sertraline and thioridazine

Row | Substance | Kd [1] [nM] | Kd [2] [nM]
1 | DDX3 wild-type (from UniProt O00571 1-662) | 68.9 | –
2 | TSAP6 (Tumor Suppressor Activated Protein) (from UniProt Q658P3 1-488) (natural protein) | – | 1000
